Key:
[1] = target: N-RAP-NH (the NH2-terminal half of N-RAP including the LIM domain); experiment: ELISA
[2] = target: N-RAP-IB (the region of N-RAP between the LIM domain and the nebulin-like repeats); experiment: ELISA

Kd [1]: 8 nM
Kd [2]: 17 nM
B1: muscle LIM protein (MLP), rat, histidine-tagged, full length (natural protein)
chain: MPNWGGGAKCGACDKTVYHAEEIQCNGRSFHKTCFHCMACRKALDSTTVAAHESEIYCKVCYGRKYGPKGIGFGQGAGCLSTDTGEHLGLQFQQSPKPARAATTSNPSKFSAKFGESEKCPRCGKSVYAAEKVMGGGKPWHKTCFPCAICGKSLESTNVTDKDGELYCKVCYAKNFGPTGIGFGGLTHQVEKKE

Source: PMC2192386
